The source of these data is article doi:10.1101/2023.01.06.522972 (2023).

The term Kd denotes the concentration at which binding is half-saturated. Low readings indicate tighter binding, high ones weaker binding.

This test has as its target Leishmania major actin (Leishmania major, UniProt P45520 2-376). Kind of test: ITC; ATP-actin. On the technique in general: ITC needs no label: the signal is the heat of the interaction.

Leishmania major actin, sequence (P45520 2-376): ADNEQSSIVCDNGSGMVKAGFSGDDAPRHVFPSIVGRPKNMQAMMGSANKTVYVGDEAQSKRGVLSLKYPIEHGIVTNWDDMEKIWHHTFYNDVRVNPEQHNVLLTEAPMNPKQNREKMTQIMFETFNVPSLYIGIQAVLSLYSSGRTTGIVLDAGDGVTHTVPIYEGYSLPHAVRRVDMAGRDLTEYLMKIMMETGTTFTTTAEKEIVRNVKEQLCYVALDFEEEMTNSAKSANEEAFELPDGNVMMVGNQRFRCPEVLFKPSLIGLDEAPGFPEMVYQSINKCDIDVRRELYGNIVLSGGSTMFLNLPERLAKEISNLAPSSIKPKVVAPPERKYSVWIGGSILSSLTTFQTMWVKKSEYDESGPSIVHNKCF

B1: Leishmania major profilin, wild type (natural protein)
chain: SWQAYVDDSLIGSGNMHSAAIIGAADGSYWAYGGSYVPQPEEVQHIQKCLSDFSFVQSSGVNIYGVKFFGLQCGTDGDCKYIFFKKGAAGGCIYTTKQAFIVAVYGNPGDTSSLQQDLEKNTAHAVTVNPADCNTTVKRIADYLIKLGY
With B1, the Kd is 71.8 nM.
